{"source": "the DeepSol protein solubility set"}
{"assay": "soluble on expression in E. coli; label from the status in PepcDB or PDB records"}
{"sequence": "MLEDLRLYQLISPSLPVGSFTYSQGLEWAIEKGWVTNVTELKHWLSNQLMDSLATLELPVLAKLTQLLQQEEWQQAQDWCDFIIANRETKELRLEERQRGLAFSMLLPKLGIELNQTTLPMVKQTQVAAFALAANHWNLTPTKLAAAYAWGWLENAVIVGIKLVPLGQSAGQQLLLEMADVIPQAVEKSQHWPEHLIGSFTPAQVLASSRHESQYTRLFRSLEHHHHHH", "soluble on expression in E. coli": "soluble"}
{"sequence": "MLEILGKASSINVRKVLWTCAELDLPYRREDWGSGFRDTHAAEFLALNPNAMVPVLRDGELVLWESNSIIRYLANRYAGERLYPQQAAPRARVDQWLDWQASDLNRSWSYAFMSLVRQSPAHRDAAQVEASLRGWTGFMEILEGQLLRTGAYVAGETFSLADIAIGLSVNRWYETPFEHPSLPAVRAYYERLGAR", "soluble on expression in E. coli": "not soluble"}
{"sequence": "MLFCTNIAIAQGTIEDYRRAYSAGEKFSANKVSYSNVNPEWIGKTHYFWYVRNTPDGRIYVLVDADTQNRKDLFDHKLVAAALSEASGRKIEATSLYLDRLSVNNGLDTLHFVFNNHRWMYVIDKNQLTDEGALPTPRKQRHWMETDDEKTAAPVTSPDKKYTAFIKNHNIYVKETATGKEKQLSLDGTLGNYYSAYIRWSPDSKKSLPARFVR", "soluble on expression in E. coli": "not soluble"}
{"sequence": "MLFFLIFLGLMATASAKAGRCNEGDQDAHFDSNKFWKCEGGRWIVVTCQINYFYDATTGFCYLSRFPTTRPYPPPFPTRPRPTQGHRCYPGTRIPYPHDHTMFLECSTDGTEYIKRYCQPDAVFVQRENMCVAIQTTYRPTRTWPTTTTTPYYGACKESAGHDGYKPDVYNCKNFYQCASGLWTQRSCGEGTIWDQHKLTCDHNRGQCRPTSPTVQPTYQPTWRPTAYPPNEVKK", "soluble on expression in E. coli": "soluble"}
{"sequence": "MLGDRCAPIKASGVLIGDSVLVTDVEQARSLYSCGYYGQPLDVEKPRGADFEGPLRLSLIESLYLAEKGVLEVAKPDGSSVGVEDLRTAVRGNPRFSMLYNIYRDLRERGFVVRSGLKFGSDFAVYRLGPGIDHAPFIVHAYSPEDNIDPVEIVRAGRLSHSVRKKFVFAVTRGGDVSYLMIDWFRP", "soluble on expression in E. coli": "soluble"}
{"sequence": "MLGMSYLRYVRIIGTVHVSPQSVKEVRNIILRENPDAVAVELDYGRLLSLLNGSSLTFSQAIKLGKIGILAYLLQGVEMALGKQVGVLPGSEMIEAFEVARSLGIPIYMIDMPIQVTLKRLFSVPIEEKIRGIIEIFLSIVYPKVELNLEDYISLELEFKRKYPTVYKILVEERNEFMARNLMRIVDILLERKKKIKIIAVVGLGHKRGIERILSHYSPKSIYLEHHHHHH", "soluble on expression in E. coli": "not soluble"}
{"sequence": "MLGPVLRLVVKAGKERKLRNFYPNLYRDEIAAPPEGVGVAEAVDAEGHFLAVGYYDPRSRVPFRAFRFDPGPLNRAFFQGRFARALRRRQGLGESHRLVHGEADGLPGLVVDRFGEVLVLQVRSRGMEALREVWLPALLEVVAPKGVYERSDVEARRQEGLPERVGVVYGEVPEVLEVEEDGLRFPIPLALAQKTGYYLDQRENRRLFEAMVRPGERVLDVYSYVGGFALRAARKGAYALAVDKDLEALGVLDQAALRLGLRVDIRHGEALPTLRGLEGPFHHVLLDPPTLVKRPEELPAMKRHLVDLVREALRLLAEEGFLWLSSCSYHLRLEDLLEVARRAAADLGRRLRVHRVTYQPEDHPWSLHIPESLYLKTLVLQDDPL", "soluble on expression in E. coli": "soluble"}
{"sequence": "MLGTISMRFFATKVVAPRASVAASTPQVPLGMNINPYAMFIKENFKANTSDMKRTDLMKELSGKWKALSISEKDKYTELSKNYNAQKLDDFMKLSTEEQKKLVDSAKEKKAERASRRHAKERREKRKQSGRPSVPPSAYALFIKEKLSGAGMESKEKMKEAVAQWKAFTDSQKKKYTDEAKKLKDEYHVVLQKWEAEQKENADQ", "soluble on expression in E. coli": "not soluble"}
{"sequence": "MLHILCQGTPFEIGYEHGSAAKAVIARSIDFAVDLIRGKTKKTDEELKQVLSQLGRVIEERWPKYYEEIRGIAKGAERDVSEIVMLNTRTEFAYGLKAARDGATTAYCQLPNGALQGQNWDFFSATKENLIRLTIRQAGLPTIKFITEAGIIGKVGFNSAGVAVNYNALHLQGLRPTGVPSHIALRIALESTSPSQAYDRIVEQGGMAASAFIMVGNGHEAFGLEFSPTSIRKQVLDANGRMVHTNHCLLQHGKNEKELDPLPDSWNRHQRMEFLLDGFDGTKQAFAQLWADEDNYPFSICRAYEEGKSRGATLFNIIYDHARREATVRLGRPTNPDEMFVMRFDEEDERSALNARL", "soluble on expression in E. coli": "soluble"}
{"sequence": "MLHKRFRRYSMLKRYGQIIEVLQKYGFGYIVDQIGLGSFGDFTSRLKKQEKRDEHNLSGPVRTRRILEELGPTYIKLGQLLSMRRDLVPLEYAAEFSKLQDDAPSFGFEEVELIIREELGLPVEDLFESFEKKPLACASIGQVHRAKLKNGDDVVVKVQRPGIKEVIESDLDIMYSLSRLLTEHIPEARLYRPVELVDELSRSILAEIDYSQEGWNTDRFAENFKDSEQIHIPKVYWDYTGLEHHHHHH", "soluble on expression in E. coli": "not soluble"}
{"sequence": "MLIKLGTELTKEEYVTRYMRNFQKLLLLGDRPKVLTNREEQLLQYEKELCVLFYEQFIKKHHRAPDEATLDDQVKANFIERSKIFARSPLVMDEGNFTQAHIGQLKRLRELRMEDYLPDNYTHILQREEELARNYFRKHDDYPFGYECLCISRSREVVNQGLEKLLEGFYDSYQVYYRRYRKNG", "soluble on expression in E. coli": "not soluble"}
{"sequence": "MLIPWQDLSPETLENLIESFVLREGTDYGEHERTLEQKVADVKRQLQCGEAVLVWSELHETVNIMPRSQFRE", "soluble on expression in E. coli": "soluble"}
{"sequence": "MLIVLSLGGSILAKNLDPDRFLKYANALRDISKKHTLLVVTGGGEAARDYIGAARAMGADEVTCDYIGIEITRLNARLLISALGHDAYPEIPSNYPEASKAMTSGKVVVMGGVTPGQTTDAVASILAEYLRADLLTIATSIDGVYSSDPNCDPCAVKYEKISPEKLINIVMAIEMKAGSKSPVDPVAAKIIERCKLDALVMDARNPDLLVEVICGEAAKKSPVSCGTWITAKKMAGDPLEHHHHHH", "soluble on expression in E. coli": "soluble"}
{"sequence": "MLIVRPSGRAAEDVETCLNAGWRAEVLSPVEIEADAAGLELLSEQYARADAVFWVSPTAVETAVPYLNLSDGIKAQIAVGQGSRRALERCLVRTVIAPDDGNDSEAVLRLPVWNSLPEGARVLFVRGHGGRDFLMNALQEKGFRTEVAEVYFRRHKPLNFQNFQTENIAAAYITSTELVRLLFGQLPPQFSRFFKSLLYFTHHPRIAEALKREGVCSVETVPTLEAALSHSSISVSDGMVFPGTSN", "soluble on expression in E. coli": "not soluble"}
{"sequence": "MLKEFKMIEAVAPDMLDVLQERFQILRNIYWMQPIGRRSLSETMGITERVLRTETDVLKQLNLIEPSKSGMTLTERGLEVYQGLELVMNQLLGMHQIEKEMTQYFGIQRCIVVAGDSDIQKKVLSDFGDVLTNTLNLLLPNGENTIAVMGGTTMAMVAENMGSLETEKRHNLFVPARGGIGEAVSVQANSISAVMANKTGGNYRALYVPEQLSRETYNSLLQEPSIQEVLTLISHANCVVHSIGRALHMAARRKMSDDEMVMLKQKNAVAESFGYFFDEEGKVVYKIPRIGLQLKNLQEIPYVVAIAGGKTKAKAIRAYMKNAPKQTWLITDEAAANEILKGVTL", "soluble on expression in E. coli": "soluble"}
{"sequence": "MLKKYLISLDKDIQRRELFFSQKNTEDFQVFSAINTMQKDWDELAAIFNIEQFKAHYFRNVTKGEIGCTLSHLSVYQKIVEDNDIAEDSYALVCEDDALFHSDFQQNLTALLSEKLEAEIILLGQSKINDFNDFDLEINYPTTFSFLCKKTGDVNYAFPYKSYFAGTVGYLIKKSAARRFIQQISQNKPFWLADDFLLFEQNFNIRNKVVRPLIVIENPVLISNLESVRGSLSNNLLKKLMKYPLKKIFAIKKNLAN", "soluble on expression in E. coli": "soluble"}
{"sequence": "MLKLARPFIPPLSRNNAISSGIVLTSRRFQSSFTFLSNQSLLSKNQMKSKRKKGSKKAAYHRQPPEHEHTAPLIKQNKTITKKEHSDVRGSHLKKKRSDFSWLPRVPSTSHLKQSDMTTNVLYSGYRPLFINPNDPKLKEDTGSTLYEFAMKLEDLNEPLSPWISSATGLEFFSEWENIPSELLKNLKPFHPPKEKSMNTNELIHVSAKRNTLVDNKTSETLQRKMDEFSKRRGKGRKKSVVTLLQMKKKLEG", "soluble on expression in E. coli": "not soluble"}
{"sequence": "MLKLLIVDDAMFMRTMIKNIVKDSDFEVVAEAENGLEAVKKYDEVKPDIVTLDITMPEMDGLEALAQIMAKDPSAKVIMCSAMGQQGMVVDAIKKGAKDFIVKPFQADRVLEALEKAAK", "soluble on expression in E. coli": "not soluble"}
{"sequence": "MLKLSKIVLISSLLVLVQQISYAKIGGFELIVNVPIGAGITLVNKNVSVAGNPKLGGNFQIGLEANIGYMFQIMDNMGVSLLGSLGYDFTGFSYSKNNNTENYKNTVHDIYRFLS", "soluble on expression in E. coli": "not soluble"}
{"sequence": "MLKLYVLVYKGEPLDYHEYRHTALYLKLPDNQSFIMHILGTQGMFEYAQIKNKDPSVVGSLAKVVPVADISEVIGSGPIQSTVAKTLVQNGPLDLDWNCQHWVGDALSKLAERKYITVAERAEAIDRMMDACLEAMDD", "soluble on expression in E. coli": "not soluble"}
{"sequence": "MLKSIILLICAHCAFSDRLDAGSQADCVAAANKIYNNEWGFDHKLVYDKELEPFAAETPCGIAYLQNGLAEVGSGGAHTSVNLREEHTRIACVPKKCGGVEVACAVGGPSMALNLKRKIRKLRQIRCLRTFGATVTLKN", "soluble on expression in E. coli": "not soluble"}
{"sequence": "MLKVIDVDFVSDHTLELTFNDGYQGYADLSVYFKKAPFSEIKDFKRFSLTRDGSLNWDGNELTAATLRDITKGSQKSVELSFNVQEMEAVIKQASWESMMEGRPDILQAAIRSYVEQFGHGQVIAKAGIKSRTSAYRSLKPETTPNFGTLVQLGHAVIELAKDRTVANKEPRI", "soluble on expression in E. coli": "not soluble"}
{"sequence": "MLKYEHIAKQLNAFIHQSNFKPGDKLPNVTQLKERYQVSKSTIIKALGLLEQDGLIYQAQGSGIYVRNIADANRINVFKTNGFSKSLGEHRMTSKVLVFKEMATPPKSVQDELQLNADDTVYYLERLRFVDDDVLCIEYSYYHKEIVKYLNDDIAKGSIFDYLESNMKLRIGFSDIFFNVDKLTSSEASLLQLSTGEPCLRYHQTFYTMTGKPFDSSDIVFHYRHAQFYIPSKK", "soluble on expression in E. coli": "soluble"}
{"sequence": "MLLLIDNYDSFTYNLYQYFCELGTEVMVKRNDELQLTDIEQLAPSHVVISPGPCTPNEAGISLAVIRHFADKLPILGVCLGHQALGQAFGARVVRARQVMHGKTSAICHSGQGVFRGLNQPLTVTRYHSLVIATDSLPGRFELTAWTERGGEMDEIMGIRHRTLPLEGVQFHPESILSEQGHQLLDNFLKN", "soluble on expression in E. coli": "not soluble"}
{"sequence": "MLLLLTFIESPIAGIPEIRKHNCLVLPHIFVCLVITKSFGRVVTSGAAVTKRAAGYFGYLAHCAADETTWYACEQFVIGHARKAVTHFIYLA", "soluble on expression in E. coli": "not soluble"}
{"sequence": "MLLQEELEQRTVSVSIQAAKLSGRVLRAAIAAVLQKMEQERTMPKVGRNSMKRLTYKDPGANTIEVSGRIRSFERYARKHQVRYHIEKELGTDPPKWTVYFKANQADALTAAFKEYTKKDLTRSTRPSLLIQLHKFKELAQSLGRDRVKNKEHGGPER", "soluble on expression in E. coli": "not soluble"}
{"sequence": "MLLRFIIGLSSVLLVTGLFNPLLPTLGDYLLTDQQVQKYFSVAGPSNLAIGTCNSVPFASAQAGFASSVGLAPTTTWREANILTNATIGMIDQGMDQLAAVCQARQQFVQTLGAAYDTCTDRFYLISLGNTDWWNVMQYTHLMKHLEFICSTGFDVYQSNIDCIRKGETTDGNQYRACFYKFNATVNANPNNFCGATETFIGCIKDFFDTECNLYVGWMQCELERIGFAYDCYGLSC", "soluble on expression in E. coli": "not soluble"}
